According to publication PMC11432006, “Functional Divergence in the Affinity and Stability of Non-Canonical Cysteines and Non-Canonical Disulfide Bonds: Insights from a VHH and VNAR Study” (International Journal of Molecular Sciences, 2024):

Target: T1, GFP-BC2-tag (Homo sapiens (beta-catenin-derived …, UniProt P35222))
T1 construct: also called BC2 peptide
T1 chain: PDRKAAVSHWQQ
Experiment: SPR; Biacore 8k; antigen (lysozyme or GFP-BC2-tag) amine-coupled to a CM5 chip, single-domain antibody flowed over at 30 µL/min; running buffer 137 mM NaCl, 2.7 mM KCl, 10 mM Na2HPO4, 1.8 mM KH2PO4 pH 7.5, room temperature; 1:1 Langmuir model
Conditions: both partners purified

binding result: no binding (tested: 5000 nM)
B1: BC2-Nb_(C55A_C110S) (VHH)
VHH: QVQLVESGGGLVQPGGSLTLSCTASGFTLDHYDIGWFRQAPGKEREGVSAINNSDDDTYYADSVKGRFTIFMNNAKDTVYLQMNSLKPEDTAIYYCAEARGSKRGRYEYDFWGQGTQVTVSS
notes: also called BC2-Nb mutant
